Results published in publication PMC6415948.
pKd: −log10 of the molar value.

Assays:
Assay in all cases: SPR
[1] = target: Human IgG1 Fc, G0F N-glycan (agalactosylated, core-fucosylated) (human)
[2] = target: Human IgG1 Fc, G0 N-glycan (agalactosylated, afucosylated) (human)
[3] = target: Human IgG1 Fc, fucosylated, mixed N-glycans (predominantly G0F/G1F/G2F) (human)
[4] = target: Human IgG1 Fc, G2F N-glycan (digalactosylated, core-fucosylated) (human)
[5] = target: Human IgG1 Fc, afucosylated, mixed N-glycans (G0, G1 and G2) (human)

| Substance | pKd [1] | pKd [2] | pKd [3] | pKd [4] | pKd [5] |
| --- | --- | --- | --- | --- | --- |
| CD16a N38Q/N45Q/N74Q/N169Q, Man5 glycoform (receptor) | 6.44 |  |  |  |  |
| CD16a N38Q/N74Q/N169Q following treatment with Endoglycosidase F1 (N-glycans truncated to a single (1)GlcNAc) (receptor) | 8.54 | 8.89 |  | 8.80 |  |
| CD16a, wild type, Man9 glycoform (receptor) |  |  | 7.19 |  | 8.40 |
| CD16a, wild type, complex-type glycoform (receptor) |  |  | 6.61 |  | 7.42 |

Results, then the substance that gave them:

| pKd [1] | pKd [2] | pKd [3] | pKd [4] | pKd [5] | Substance |
| --- | --- | --- | --- | --- | --- |
| 7.74 | 8.62 | 7.24 | 8.00 | 8.60 | CD16a (Fc γ receptor IIIa), wild type, Man5 glycoform |
| 8.43 | 8.77 |  | 8.70 |  | CD16a, wild type, following treatment with Endoglycosidase F1 (N-glycans truncated to a single (1)GlcNAc) (receptor) |
